Data: patent US20150166643A1 (Alexion, published 2015)

How the values were obtained:
[1] = molecular target: T1, human factor B (purified, Complement Technology A135) (human, UniProt P00751 26-764); assay: BLI (Octet), biotinylated factor B on streptavidin biosensor, Fab at 12.5 nM
T1 construct: also called fB; human complement factor B
Procedure: (§1) Binding kinetics of TA106 and TA106 S33A Fab (CLS016) to Factor B were analyzed using a FortéBio® Octet® biosensor (FortéBio, Inc.) in a similar protocol as described previously. In one exemplary experiment, Factor B (Complement Technology) was biotinylated at a 1:10 ratio and coupled to a streptavidin biosensor at a concentration of 5 μg/mL for a loading time of 600 seconds. Biosensors were briefly dipped in 1×KB as a wash for 30 seconds. Associations with a titration series of Fab with a concentration range from 100 to 3 nM (diluted in 1×KB) were carried out for 600 seconds. Fabs were dissociated from the biosensor by immersing the biosensor in 1×KB during the 600 second dissociation phase. As depicted in FIGS. 19 and 20, both TA106 Fab and TA106-derivative S33A Fab (CLS016) bound to Factor B at various concentrations, resulting in nearly identical association and dissociation profiles. Kinetic assessments using partial local fit parameters yielded identical values for KD/kₐ/Kd at each concentration tested.

[2] = molecular target: T1, human factor B (purified, Complement …); assay: SPR, factor B on surface, Fab flowed (summary table)
Text: (§2) Binding kinetics of TA106 Fab and variant S33A Fab (CLS016) were further characterized using Surface Plasmon Resonance (SPR) technology. In one exemplary experiment, both Fabs were captured on chips of a Biacore 3000 analyzer and samples of human factor B of different concentrations were flowed as the antigen over the surface to model soluble human factor B binding, using protocols recommended by the manufacturer and described previously in the instant disclosure. […] In another exemplary experiment, the affinities of both Fabs were also measured by reversing the orientation of the previous experiment. Specifically, human factor B was directly coupled to one flow cell of a CM5 chip. The second flow cell was used as a blank reference with no coupled ligand. CLS016 or TA106 Fab was then flowed on both flow cells. Concentrations between 0.19 to 25 nM were run with duplicates. The surface was regenerated between each cycle.

[3] = molecular target: T1, human factor B (purified, Complement …); assay: SPR (Biacore), human factor B directly coupled to CM5 chip, Fab flowed at 0.19-25 nM
Text: as §2

[4] = molecular target: T1, human factor B (purified, Complement …); assay: BLI (Octet), biotinylated factor B on streptavidin biosensor, Fab at 6.25 nM
Procedure: as §1

[5] = molecular target: T1, human factor B (purified, Complement …); assay: SPR (Biacore), TA106 Fab captured on anti-Fab surface, soluble factor B flowed; Chi2 0.113
[6] = molecular target: T1, human factor B (purified, Complement …); assay: SPR (Biacore 3000), Fab captured on chip, soluble human factor B 3.1-100 nM
Text: as §2

[7] = molecular target: T1, human factor B (purified, Complement …); assay: BLI (Octet), biotinylated factor B on streptavidin biosensor, Fab at 100 nM
Procedure: as §1

[8] = molecular target: T1, human factor B (purified, Complement …); assay: cell-based or functional assay
[9] = molecular target: T1, human factor B (purified, Complement …); assay: BLI (Octet), biotinylated factor B on streptavidin biosensor, Fab at 50 nM
Procedure: as §1

[10] = molecular target: T1, human factor B (purified, Complement …); assay: SPR (Biacore), factor B bound directly to the chip, free TA106 Fab flowed; Chi2 0.901
Text: (§3) The difference in the two Biacore data sets could be explained as either that the conformation of factor B changes when binding to the surface or that not all commercial factor B is active. This later Biacore experiment (with a fixed concentration of factor B bound to the chip) removed the factor B concentration from the calculation.

[11] = molecular target: T1, human factor B (purified, Complement …); assay: SPR (Biacore), factor B coupled to the chip, free TA106 Fab 0.19-25 nM flowed; Chi2 1.58 (the text rounds to 1.2 nM)
Text: as §2

[12] = molecular target: T1, human factor B (purified, Complement …); assay: SPR (Biacore), factor B coupled to the chip, free TA106 Fab 0.19-25 nM flowed; Chi2 1.58
Text: as §2

[13] = molecular target: T1, human factor B (purified, Complement …); assay: SPR (Biacore), TA106 Fab captured on anti-Fab surface, soluble factor B 3.1-100 nM flowed; Chi2 0.206
Text: as §2

[14] = molecular target: T1, human factor B (purified, Complement …); assay: SPR (Biacore), factor B bound directly to the chip, free TA106 Fab flowed; Chi2 0.901 (the text rounds to 1.4 nM)
Text: as §3

[15] = molecular target: T1, human factor B (purified, Complement …); assay: BLI (Octet), biotinylated factor B on streptavidin biosensor, Fab at 25 nM
Procedure: as §1

[16] = molecular target: T1, human factor B (purified, Complement …); assay: BLI (Octet), binding to factor B (summary table)
Procedure: as §1

T1 sequence (P00751 26-764): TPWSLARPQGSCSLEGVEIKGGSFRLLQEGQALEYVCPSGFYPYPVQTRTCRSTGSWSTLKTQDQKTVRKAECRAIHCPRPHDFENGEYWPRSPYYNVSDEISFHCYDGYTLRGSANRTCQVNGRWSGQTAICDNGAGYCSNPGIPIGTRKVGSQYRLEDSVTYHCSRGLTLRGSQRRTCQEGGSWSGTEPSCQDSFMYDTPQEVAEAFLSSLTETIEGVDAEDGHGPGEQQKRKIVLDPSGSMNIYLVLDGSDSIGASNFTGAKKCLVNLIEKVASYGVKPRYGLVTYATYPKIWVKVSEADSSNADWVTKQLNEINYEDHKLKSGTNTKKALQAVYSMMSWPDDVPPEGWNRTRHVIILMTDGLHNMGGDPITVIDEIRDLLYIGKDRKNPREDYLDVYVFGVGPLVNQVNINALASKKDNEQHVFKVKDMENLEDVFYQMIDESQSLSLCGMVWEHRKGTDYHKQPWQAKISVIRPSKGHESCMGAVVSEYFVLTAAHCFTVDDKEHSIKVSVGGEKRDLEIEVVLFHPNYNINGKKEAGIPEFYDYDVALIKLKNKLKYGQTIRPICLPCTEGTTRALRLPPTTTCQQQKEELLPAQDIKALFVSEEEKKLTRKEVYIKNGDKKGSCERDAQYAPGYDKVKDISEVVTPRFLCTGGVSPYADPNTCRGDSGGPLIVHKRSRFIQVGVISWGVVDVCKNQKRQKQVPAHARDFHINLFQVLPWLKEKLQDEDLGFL

- Kd [1]: 29.8 nM
- koff [1]: 0.00324 s⁻¹
- kon [1]: 109000 M⁻¹ s⁻¹
- Kd [2]: 1.5 nM
- Kd [3]: ~1.2 nM
- Kd [4]: 41.6 nM
- koff [4]: 0.00294 s⁻¹
- kon [4]: 70600 M⁻¹ s⁻¹
- koff [5]: 0.0036 s⁻¹
- kon [5]: 118000 M⁻¹ s⁻¹
- Kd [6]: ~30.6 nM
- Kd [7]: 13 nM
- koff [7]: 0.00405 s⁻¹
- kon [7]: 312000 M⁻¹ s⁻¹
- IC50 (read off the curve); lysis of rabbit red blood cells in 10% normal human serum [8]: ~80 nM
- Kd [9]: 22.7 nM
- koff [9]: 0.0039 s⁻¹
- kon [9]: 172000 M⁻¹ s⁻¹
- koff [10]: 0.00305 s⁻¹
- kon [10]: 2.2e+06 M⁻¹ s⁻¹
- Kd [11]: 1.17 nM
- koff [12]: 0.00333 s⁻¹
- kon [12]: 2.84e+06 M⁻¹ s⁻¹
- koff [13]: 0.00338 s⁻¹
- kon [13]: 136000 M⁻¹ s⁻¹
- Kd [14]: 1.39 nM
- Kd [15]: 22.4 nM
- koff [15]: 0.00352 s⁻¹
- kon [15]: 157000 M⁻¹ s⁻¹
- Kd [16]: 20 to 30 nM
B1: TA106 Fab (humaneered anti-factor B Fab, expressed in E. coli) (Fab, V domains shown)
VH: QVQLVQSGAEVKKPGASVKVSCKASGYSFTDYYMTWVRQAPGQGLEWMGWINPNSGGTKYAQKFQGRVTMTRDTSISTAYMELSRLRSDDTAVYYCARGYYANSAWFAYWGQGTLVTVSS
VL: DIVMTQSPDSLAVSLGERATINCKSSQSLLNSSTSKNYLAWYQQKPGQPPKLLIYWASTRESGVPDRFSGSGSGTDFTLTISSLQAEDVAVYYCKQVYNLPWTFGQGTKLEIKR
notes: Fab made in E. coli by Xoma, not glycosylated; also called Fab TA106; TA106 wild type Fab
